Among the data in patent US20090311784A1 (WISCONSIN ALUMNI RESEARCH FOUNDATION, published 2009) are Kd, ΔΔG and ΔΔΔG values, retold here.

Positions count from the first letter of the chain named. In names and notes the source's numbering stands.

To fix the notation:
T1: human ribonuclease inhibitor (human, UniProt P13489 2-461)
T1 construct: also called hRI; hR1
T1 sequence: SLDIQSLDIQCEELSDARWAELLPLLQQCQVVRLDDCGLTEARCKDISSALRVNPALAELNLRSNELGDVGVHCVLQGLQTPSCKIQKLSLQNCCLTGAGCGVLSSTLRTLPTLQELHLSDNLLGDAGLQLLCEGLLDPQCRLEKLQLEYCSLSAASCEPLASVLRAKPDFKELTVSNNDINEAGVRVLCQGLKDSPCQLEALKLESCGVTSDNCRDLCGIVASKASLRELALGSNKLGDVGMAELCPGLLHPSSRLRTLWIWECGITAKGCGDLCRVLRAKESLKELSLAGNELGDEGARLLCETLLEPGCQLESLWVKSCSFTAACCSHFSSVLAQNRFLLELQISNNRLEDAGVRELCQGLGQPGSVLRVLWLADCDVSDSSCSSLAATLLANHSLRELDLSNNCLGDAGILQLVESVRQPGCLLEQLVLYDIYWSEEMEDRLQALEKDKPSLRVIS

B1: fluorescein-labeled G88R RNase A (enzyme)
chain: KETAAAKFERQHMDSSTSCASSSNYCNQMMKSRNLTKDRCKPVNTFVHESLADVQAVCSQKNVACKNGQTNCYQSYSTMSITDCRETRSSKYPNCAYKTTQANKHIIVACEGNPYVPVHFDASV
modifications: fluorescein on Cys19 (F*-A19C)
notes: also called F*-A19C G88R RNase A; fluorescently-labeled G88R RNase A
B2: G38R/R39G/N67R/N88R RNase 1 (enzyme)
chain: KESRAKKFQRQHMDSDSSPSSSSTYCNQMMRRRNMTQRGCKPVNTFVHEPLVDVQNVCFQEKVTCKRGQGNCYKSNSSMHITDCRLTRGSRYPNCAYRTSPKERHIIVACEGSPYVPVHFDASVEDST
notes: Made by site-directed mutagenesis and purified like wild-type RNase 1
B3: R39D/N67D/G89D/R91D RNase 1 (enzyme)
chain: B2 chain with R38G, G39D, R67D, R88N, G89D, R91D
B4: R39D/N67D/N88A/G89D/R91D RNase 1 (enzyme)
chain: B2 chain with R38G, G39D, R67D, R88A, G89D, R91D
B5: R39D/N67D/N88A/G89D RNase 1 (enzyme)
chain: B2 chain with R38G, G39D, R67D, R88A, G89D
B6: R39L/N67L/N88A/G89L/R91L RNase 1 (enzyme)
chain: B2 chain with R38G, G39L, R67L, R88A, G89L, R91L
B7: N67D/N88A/G89D/R91D RNase 1 (enzyme)
chain: B2 chain with R38G, G39R, R67D, R88A, G89D, R91D
B8: R39D/N88A/G89D/R91D RNase 1 (enzyme)
chain: B2 chain with R38G, G39D, R67N, R88A, G89D, R91D
B9: R39D/N67D/N88A/R91D RNase 1 (enzyme)
chain: B2 chain with R38G, G39D, R67D, R88A, R91D

The target of one assay is T1, human ribonuclease inhibitor. The assay is described as follows: constant used in the fluorescence competition assay. An excerpt: (§1) Values for Kd were obtained by nonlinear least-squares analysis of the binding isotherm using the program […] 5.5 (Red Rock Software, Salt Lake City, Utah).
Take B1: the dissociation constant Kd was found to be 1.4 nM.

Another assay shares this target. The assay is described as follows: calculated from Kd: ΔΔG = -RTln(Kd wild-type/Kd variant).
Text: as §1
Take B2: the ΔΔG is 3 kcal/mol.

For B3, the ΔΔG is 9.1 kcal/mol. On the same count and under the same terms, under B4 stands 9.5 kcal/mol; under B5, 6.7 kcal/mol.

In the case of B6, the ΔΔG is 7.1 kcal/mol. On the same count and under the same terms, under B7 stands 7.3 kcal/mol; under B8, 7.6 kcal/mol. On to B9, for which the ΔΔG is 8.4 kcal/mol.

The next assay shares this target. As to the kind of experiment: ΔΔG of R39D/N67D/N88A/G89D/R91D RNase 1 minus ΔΔG of this variant.
Text: as §1
Molecule B3 displayed a ΔΔΔG of 0.4 kcal/mol. On to B5, for which the ΔΔΔG is 2.8 kcal/mol. Still for that read-out and setting: under B6 stands 2.4 kcal/mol; under B7, 2.2 kcal/mol; under B8, 1.9 kcal/mol. B9 showed a ΔΔΔG of 1.1 kcal/mol.

For a further assay the target is unchanged. As to the kind of experiment: fluorescence competition assay with fluorescein-labeled G88R RNase A for hRI.
Text: as §1
Data points are the mean (±SE) of at least three separate measurements.
For the molecule B3, binding was characterised by a dissociation constant (Kd) of 1000 nM. Same read-out and setting: under B6 stands 30 nM.

For orientation: Kd means the free concentration of one partner at which half of the binding sites on the other are occupied at equilibrium, for simple one-to-one binding. A lower Kd goes with tighter binding.
